± gives the uncertainty stated by the source.
B1: Transcription elongation factor A N-terminal and central domain-containing protein, residues 30 to 77; numbered along this chain, Q8N8B7 (parent)
chain: LTELETIYVTKEHLQETDVVRAVYRVLKNCPSVALKKKAKCLLSKWKA

Variants of: B1
Assay: abundance fitness (aPCA) (normalised: wild type 0, dead -1); higher = more abundant; growth selection in yeast, the domain comes from the species named
Settings: Homo sapiens

For LTECETIYVTKEHLQETDVVRAVYRVLKNCPSVALKKKAKCLLSKWKA [L4C], which abundance fitness is on record?
The abundance fitness was -0.51 ± 0.095.

For LTEYETIYVTKEHLQETDVVRAVYRVLKNCPSVALKKKAKCLLSKWKA [L4Y], which abundance fitness is on record?
The abundance fitness was -0.325 ± 0.12.

With LTEQETIYVTKEHLQETDVVRAVYRVLKNCPSVALKKKAKCLLSKWKA [L4Q] as the variant, how does the abundance fitness read?
The abundance fitness was 0.142 ± 0.11.

Which abundance fitness does the source give for LTELEHIYVTKEHLQETDVVRAVYRVLKNCPSVALKKKAKCLLSKWKA [T6H] here?
Its abundance fitness is -0.147 ± 0.15.

Which abundance fitness does the source give for LTELEQIYVTKEHLQETDVVRAVYRVLKNCPSVALKKKAKCLLSKWKA [T6Q] here?
The abundance fitness was 0.08 ± 0.13.

Which abundance fitness does the source give for LTELEGIYVTKEHLQETDVVRAVYRVLKNCPSVALKKKAKCLLSKWKA [T6G] here?
Its abundance fitness is -0.024 ± 0.063.

With LTELEAIYVTKEHLQETDVVRAVYRVLKNCPSVALKKKAKCLLSKWKA [T6A] as the variant, how does the abundance fitness read?
Its abundance fitness is -0.355 ± 0.086.

Which abundance fitness does the source give for LTELELIYVTKEHLQETDVVRAVYRVLKNCPSVALKKKAKCLLSKWKA [T6L] here?
Its abundance fitness is -0.616 ± 0.091.

Which abundance fitness does the source give for LTELETIYVTKEHLQETMVVRAVYRVLKNCPSVALKKKAKCLLSKWKA [D18M] here?
The abundance fitness was 0.384 ± 0.14.

With LTELETIYVTKEHLQETCVVRAVYRVLKNCPSVALKKKAKCLLSKWKA [D18C] as the variant, how does the abundance fitness read?
The abundance fitness was -0.09 ± 0.19.

Which abundance fitness does the source give for LTELETIYVTKWHLQETDVVRAVYRVLKNCPSVALKKKAKCLLSKWKA [E12W] here?
The abundance fitness was -0.71 ± 0.1.

For LTELETIYVTKHHLQETDVVRAVYRVLKNCPSVALKKKAKCLLSKWKA [E12H], which abundance fitness is on record?
Its abundance fitness is -0.606 ± 0.17.

Which abundance fitness does the source give for LTELETIYVTKSHLQETDVVRAVYRVLKNCPSVALKKKAKCLLSKWKA [E12S] here?
Its abundance fitness is -0.168 ± 0.091.

For LTELETIYVTKEHLQETDVVRAVYRVLKNCPSVALKKKIKCLLSKWKA [A39I], which abundance fitness is on record?
Its abundance fitness is 0.2 ± 0.18.

With LTELETIYVTKEHLQETDVVRAVYRVLKNCPSVALKKKGKCLLSKWKA [A39G] as the variant, how does the abundance fitness read?
Its abundance fitness is -0.576 ± 0.064.

With LTELETIYVTKEHLQETDVVRAVYRVLKNCPSVALKKKAKCLLSKWKV [A48V] as the variant, how does the abundance fitness read?
The abundance fitness was -0.62 ± 0.18.

With LTELETIYVTKEHLQETDVVRAVYRVLKNCPSVALKKKAKCLLSKWKW [A48W] as the variant, how does the abundance fitness read?
The abundance fitness was -0.469 ± 0.26.

Which abundance fitness does the source give for LTELETIYVTKEHLQETDVHRAVYRVLKNCPSVALKKKAKCLLSKWKA [V20H] here?
Its abundance fitness is -0.491 ± 0.24.

Which abundance fitness does the source give for FTELETIYVTKEHLQETDVVRAVYRVLKNCPSVALKKKAKCLLSKWKA [L1F] here?
Its abundance fitness is -0.001 ± 0.25.

Which abundance fitness does the source give for TTELETIYVTKEHLQETDVVRAVYRVLKNCPSVALKKKAKCLLSKWKA [L1T] here?
The abundance fitness was 0.251 ± 0.3.

With LTELCTIYVTKEHLQETDVVRAVYRVLKNCPSVALKKKAKCLLSKWKA [E5C] as the variant, how does the abundance fitness read?
Its abundance fitness is -0.897 ± 0.17.

With LTELETILVTKEHLQETDVVRAVYRVLKNCPSVALKKKAKCLLSKWKA [Y8L] as the variant, how does the abundance fitness read?
Its abundance fitness is -0.233 ± 0.17.

With LTELETICVTKEHLQETDVVRAVYRVLKNCPSVALKKKAKCLLSKWKA [Y8C] as the variant, how does the abundance fitness read?
The abundance fitness was -0.489 ± 0.38.

With LTELETIYVTKEHLQETDVVRAVYRRLKNCPSVALKKKAKCLLSKWKA [V26R] as the variant, how does the abundance fitness read?
Its abundance fitness is 0.211 ± 0.079.

Which abundance fitness does the source give for LTELETIYVTKEHLQETDVVRAVYRMLKNCPSVALKKKAKCLLSKWKA [V26M] here?
Its abundance fitness is 0.206 ± 0.11.

Which abundance fitness does the source give for LTELETIYVTKEHLQETDVVRAVYRVLKNCPSVALAKKAKCLLSKWKA [K36A] here?
The abundance fitness was -0.063 ± 0.073.

With LTELETIYVTKEHLQETDVVRAVYRVLKNCPSVALNKKAKCLLSKWKA [K36N] as the variant, how does the abundance fitness read?
The abundance fitness was -0.833 ± 0.19.

With LTELETIYVTKEHLQETDVVRAVYRVLKNCPSVALFKKAKCLLSKWKA [K36F] as the variant, how does the abundance fitness read?
Its abundance fitness is -0.007 ± 0.13.

For LTELETIYVTKEHLQETDVVRAVYRVLKNCPSVALGKKAKCLLSKWKA [K36G], which abundance fitness is on record?
Its abundance fitness is -0.109 ± 0.062.

With LTELETIYVTKEHLQETDVVRAVYRVGKNCPSVALKKKAKCLLSKWKA [L27G] as the variant, how does the abundance fitness read?
The abundance fitness was -0.88 ± 0.094.

Which abundance fitness does the source give for LTELETIYVTKEHLQETDVVRAVYRVLKNCPSVALKKKAKCLASKWKA [L43A] here?
Its abundance fitness is -0.787 ± 0.15.

Which abundance fitness does the source give for LTELETIYVTKEHLQETDVVRAVYRVLKNCPSVALKKKAKCLSSKWKA [L43S] here?
Its abundance fitness is -1.04 ± 0.18.

Which abundance fitness does the source give for LTELETIYVTKEHLQETDVVRAVYRVLKNCPSVALKKKAKCLGSKWKA [L43G] here?
The abundance fitness was -1.12 ± 0.14.

Which abundance fitness does the source give for LTELETIYVEKEHLQETDVVRAVYRVLKNCPSVALKKKAKCLLSKWKA [T10E] here?
Its abundance fitness is -0.139 ± 0.1.

For LTELETIYVNKEHLQETDVVRAVYRVLKNCPSVALKKKAKCLLSKWKA [T10N], which abundance fitness is on record?
The abundance fitness was -0.546 ± 0.16.

Which abundance fitness does the source give for LTELETIYVVKEHLQETDVVRAVYRVLKNCPSVALKKKAKCLLSKWKA [T10V] here?
Its abundance fitness is -0.18 ± 0.12.

Which abundance fitness does the source give for LTELETIYVDKEHLQETDVVRAVYRVLKNCPSVALKKKAKCLLSKWKA [T10D] here?
Its abundance fitness is -0.31 ± 0.23.

Which abundance fitness does the source give for LTELETIYVTKEHLQETDVVRALYRVLKNCPSVALKKKAKCLLSKWKA [V23L] here?
Its abundance fitness is 0.041 ± 0.095.

With LTELETIYVTKEHLQETDVVRATYRVLKNCPSVALKKKAKCLLSKWKA [V23T] as the variant, how does the abundance fitness read?
Its abundance fitness is -0.122 ± 0.11.

Which abundance fitness does the source give for LTELETIYVTKEHLQETDVVRAKYRVLKNCPSVALKKKAKCLLSKWKA [V23K] here?
Its abundance fitness is -0.573 ± 0.1.

Which abundance fitness does the source give for LTELETIYLTKEHLQETDVVRAVYRVLKNCPSVALKKKAKCLLSKWKA [V9L] here?
Its abundance fitness is -0.229 ± 0.082.

With LTELETIYHTKEHLQETDVVRAVYRVLKNCPSVALKKKAKCLLSKWKA [V9H] as the variant, how does the abundance fitness read?
Its abundance fitness is 0.107 ± 0.2.

Which abundance fitness does the source give for LTELETIYRTKEHLQETDVVRAVYRVLKNCPSVALKKKAKCLLSKWKA [V9R] here?
Its abundance fitness is 0.155 ± 0.068.

For LTTLETIYVTKEHLQETDVVRAVYRVLKNCPSVALKKKAKCLLSKWKA [E3T], which abundance fitness is on record?
The abundance fitness was -0.464 ± 0.15.

Which abundance fitness does the source give for LTELETIYVTKEHLQETDNVRAVYRVLKNCPSVALKKKAKCLLSKWKA [V19N] here?
Its abundance fitness is -0.695 ± 0.43.

With LTELETIYVTKEHLQETDAVRAVYRVLKNCPSVALKKKAKCLLSKWKA [V19A] as the variant, how does the abundance fitness read?
Its abundance fitness is -0.022 ± 0.11.

For LTELETIYVTKEHLQETDWVRAVYRVLKNCPSVALKKKAKCLLSKWKA [V19W], which abundance fitness is on record?
The abundance fitness was -0.01 ± 0.15.

With LTELETIYVTKEHLQETDMVRAVYRVLKNCPSVALKKKAKCLLSKWKA [V19M] as the variant, how does the abundance fitness read?
Its abundance fitness is 0.037 ± 0.14.

For LTELETIYVTKEHLQETDVVRAVYRVLKNCKSVALKKKAKCLLSKWKA [P31K], which abundance fitness is on record?
The abundance fitness was 0.291 ± 0.092.

Which abundance fitness does the source give for LTELETIYVTKEHLQETDVVRAVYRVLKNCASVALKKKAKCLLSKWKA [P31A] here?
Its abundance fitness is 0.119 ± 0.065.

With LTELETIYVTKEHLQETDVVRAVYRVLKNCGSVALKKKAKCLLSKWKA [P31G] as the variant, how does the abundance fitness read?
Its abundance fitness is 0.298 ± 0.06.

For LTELETIYVTKEHLQETDVVRAVYRVLKNCQSVALKKKAKCLLSKWKA [P31Q], which abundance fitness is on record?
Its abundance fitness is -0.017 ± 0.096.

For LTELETIYVTKEHLQETDVVRAVYRVLKNCRSVALKKKAKCLLSKWKA [P31R], which abundance fitness is on record?
The abundance fitness was 0.188 ± 0.062.

For LTELETIYVTKEHLQETDVVRAVYRVLKNDPSVALKKKAKCLLSKWKA [C30D], which abundance fitness is on record?
The abundance fitness was -0.442 ± 0.16.

Source: the Human Domainome abundance scans (Beltran et al. 2025)
